{
  "source": "FireProtDB",
  "proteins": {"B1": {"name": "Ribonuclease MC wild type, P23540 (protein)", "chain": "FDSFWFVQQWPPAVCSFQKSGSCPGSGLRTFTIHGLWPQGSGTSLTNCPQGSPFDITKISHLQSQLNTLWPNVLRANNQQFWSHEWTKHGTCSESTFNQAAYFKLAVDMRNNYDIIGALRPHAAGPNGRTKSRQAIKGFLKAKFGKFPGLRCRTDPQTKVSYLVQVVACFAQDGSTLIDCTRDTCGANFIF"}, "B2": {"name": "Sphingosine kinase 1 wild type, Q9NYA1 (protein)", "chain": "MDPAGGPRGVLPRPCRVLVLLNPRGGKGKALQLFRSHVQPLLAEAEISFTLMLTERRNHARELVRSEELGRWDALVVMSGDGLMHEVVNGLMERPDWETAIQKPLCSLPAGSGNALAASLNHYAGYEQVTNEDLLTNCTLLLCRRLLSPMNLLSLHTASGLRLFSVLSLAWGFIADVDLESEKYRRLGEMRFTLGTFLRLAALRTYRGRLAYLPVGRVGSKTPASPVVVQQGPVDAHLVPLEEPVPSHWTVVPDEDFVLVLALLHSHLGSEMFAAPMGRCAAGVMHLFYVRAGVSRAMLLRLFLAMEKGRHMEYECPYLVYVPVVAFRLEPKDGKGVFAVDGELMVSEAVQGQVHPNYFWMVSGCVEPPPSWKPQQMPPPEEPL"}, "B3": {"name": "Cyclin-dependent kinase inhibitor 2A wild type, P42771 (protein)", "chain": "MEPAAGSSMEPSADWLATAAARGRVEEVRALLEAGALPNAPNSYGRRPIQVMMMGSARVAELLLLHGAEPNCADPATLTRPVHDAAREGFLDTLVVLHRAGARLDVRDAWGRLPVDLAEELGHRDVARYLRAAAGGTRGSNHARIDAAEGPSDIPD"}, "B4": {"name": "Apolipophorin-3 wild type, P13276 (protein)", "chain": "MAAKFVVVLAACVALSHSAMVRRDAPAGGNAFEEMEKHAKEFQKTFSEQFNSLVNSKNTQDFNKALKDGSDSVLQQLSAFSSSLQGAISDANGKAKEALEQARQNVEKTAEELRKAHPDVEKEANAFKDKLQAAVQTTVQESQKLAKEVASNMEETNKKLAPKIKQAYDDFVKHAEEVQKKLHEAATKQ"}, "B5": {"name": "cAMP-dependent protein kinase type I-beta regulatory subunit wild type, P12849 (protein)", "chain": "MASPSCFHSEDEDSLKGCEMYVQKHGIQQVLKECIVHLCVAKPDRPLRFLREHFEKLEKEENRQILARQKSNSQCDSHDEEISPTPPNPVVKARRRRGGVSAEVYTEEDAVSYVRKVIPKDYKTMTALAKAISKNVLFSHLDDNERSDIFDAMFPVTHIGGETVIQQGNEGDNFYVIDQGEVDVYVNGEWVTNISEGGSFGELALIYGTPRAATVKAKTDLKLWGIDRDSYRRILMGSTLRKRKMYEEFLSKVSILESLEKWERLTVADALEPVQFEDGEKIVVQGEPGDDFYIITEGTASVLQRRSPNEEYVEVGRLGPSDYFGEIALLLNRPRAATVVARGPLKCVKLDRPRFERVLGPCSEILKRNIQRYNSFISLTV"}, "B6": {"name": "Cystatin-A wild type, P01040 (protein)", "chain": "MIPGGLSEAKPATPEIQEIVDKVKPQLEEKTNETYGKLEAVQYKTQVVAGTNYYIKVRAGDNKYMHLKVFKSLPGQNEDLVLTGYQVDKNKDDELTGF"}, "B7": {"name": "Interleukin-6 wild type, P08505 (protein)", "chain": "MKFLSARDFHPVAFLGLMLVTTTAFPTSQVRRGDFTEDTTPNRPVYTTSQVGGLITHVLWEIVEMRKELCNGNSDCMNNDDALAENNLKLPEIQRNDGCYQTGYNQEICLLKISSGLLEYHSYLEYMKNNLKDNKKDKARVLQRDTETLIHIFNQEVKDLHKIVLPTPISNALLTDKLESQKEWLRTKTIQFILKSLEEFLKVTLRSTRQT"}, "B8": {"name": "Phosphoserine aminotransferase wild type, Q59196 (protein)", "chain": "MSKRAYNFNAGPAALPLEVLERAQAEFVDYQHTGMSIMEMSHRGAVYEAVHNEAQARLLALLGNPTGYKVLFIQGGASTQFAMIPMNFLKEGQTANYVMTGSWASKALKEAKLIGDTHVAASSEASNYMTLPKLQEIQLQDNAAYLHLTSNETIEGAQFKAFPDTGSVPLIGDMSSDILSRPFDLNQFGLVYAGAQKNLGPSGVTVVIVREDLVAESPKHLPTMLRYDTYVKNNSLYNTPPSFGIYMVNEVLKWIEERGGLEGVQQANRKKASLIYDAIDQSGGFYRGCVDVDSRSDMNITFRLASEELEKEFVKASEQEGFVGLKGHRSVGGLRASIYNAVPYESCEALVQFMEHFKRSRG"}},
  "conditions": "whole UniProt chain shown",
  "key": {"[1]": {"conditions": "Momordica charantia, pH 7.5, 25 °C, GdnHCl, fluorescence, Tris-HCl 10 mM, NaCl 200 mM"}, "[2]": {"conditions": "Homo sapiens, pH 8, 25 °C, GdnHCl, CD, Tris-Hcl, transition: 2"}, "[3]": {"conditions": "Homo sapiens, pH 8, 25 °C, GdnHCl, fluorescence, Tris-Hcl, transition: 2"}, "[4]": {"conditions": "Homo sapiens, pH 7.5, 25 °C, Urea, CD, HEPES 20 mM, NaCl 100 mM, reversible: no"}, "[5]": {"conditions": "Homo sapiens, pH 7.5, 25 °C, Urea, CD, Sodium phosphate 15 mM, NaCl 100 mM, reversible: yes"}, "[6]": {"conditions": "Manduca sexta, pH 7, 25 °C, GdnHCl, CD, Potassium phosphate 50 mM, reversible: yes"}, "[7]": {"conditions": "Homo sapiens, pH 8.1, Thermal, DSC, Tris-HCl 20 mM"}, "[8]": {"conditions": "Mus musculus, pH 4, 25 °C, GdnHCl, CD, Sodium acetate 10 mM, reversible: yes"}, "[9]": {"conditions": "Mus musculus, pH 4, 25 °C, Urea, CD, Sodium acetate 10 mM, reversible: yes"}, "[10]": {"conditions": "Mus musculus, pH 7.4, 25 °C, Urea, CD, Tris-HCl 10 mM, reversible: yes"}, "[11]": {"conditions": "Niallia circulans, pH 6, Thermal, DSC, HEPES 100 mM, reversible: No"}, "[12]": {"conditions": "Niallia circulans, pH 8.5, Thermal, DSC, HEPES 100 mM, reversible: No"}, "[13]": {"conditions": "Niallia circulans, pH 10, Thermal, DSC, CHESS 100 mM, reversible: No"}},
  "data": [
    {"protein": "B1", "values": [
      {"measurement": "denaturant midpoint (higher = more stable)", "setting": "[1]", "value": 2.57, "unit": "M"},
      {"measurement": "unfolding free energy", "setting": "[1]", "value": 13.2, "unit": "kcal/mol"},
      {"measurement": "Tm", "setting": "Momordica charantia, pH 7.5, Thermal, CD, Tris-HCl 10 mM, NaCl 200 mM", "value": 64.4, "unit": "°C"}
    ]},
    {"protein": "B2", "values": [
      {"measurement": "denaturant m value", "setting": "[2]", "value": 0.42, "unit": "kcal/mol/M"},
      {"measurement": "denaturant midpoint (higher = more stable)", "setting": "[2]", "value": 2.86, "unit": "M"},
      {"measurement": "unfolding free energy", "setting": "[2]", "value": 1.32, "unit": "kcal/mol"},
      {"measurement": "denaturant m value", "setting": "[3]", "value": 0.6, "unit": "kcal/mol/M"},
      {"measurement": "denaturant midpoint (higher = more stable)", "setting": "[3]", "value": 2.94, "unit": "M"},
      {"measurement": "unfolding free energy", "setting": "[3]", "value": 1.75, "unit": "kcal/mol"}
    ]},
    {"protein": "B3", "values": [
      {"measurement": "denaturant midpoint (higher = more stable)", "setting": "[4]", "value": 2.74, "unit": "M"},
      {"measurement": "unfolding free energy", "setting": "[4]", "value": 2.7, "unit": "kcal/mol"},
      {"measurement": "unfolding free energy", "setting": "Homo sapiens, pH 7.5, 25 °C, Urea, CD, MOPS 10 mM, NaF 50 mM, reversible: Yes", "value": 2.3, "unit": "kcal/mol"},
      {"measurement": "denaturant m value", "setting": "[5]", "value": 2, "unit": "kcal/mol/M"},
      {"measurement": "denaturant midpoint (higher = more stable)", "setting": "[5]", "value": 1.9, "unit": "M"},
      {"measurement": "Tm", "setting": "Homo sapiens, pH 7.5, Thermal, CD, HEPES 50 mM, reversible: no", "value": 41.5, "unit": "°C"}
    ]},
    {"protein": "B4", "values": [
      {"measurement": "denaturant m value", "setting": "[6]", "value": 3.65, "unit": "kcal/mol/M"},
      {"measurement": "denaturant midpoint (higher = more stable)", "setting": "[6]", "value": 0.36, "unit": "M"},
      {"measurement": "unfolding free energy", "setting": "[6]", "value": 1.29, "unit": "kcal/mol"},
      {"measurement": "Tm", "setting": "Manduca sexta, pH 7, Thermal, CD, Potassium phosphate 50 mM, reversible: yes", "value": 52, "unit": "°C"}
    ]},
    {"protein": "B5", "values": [
      {"measurement": "unfolding free energy", "setting": "Mus musculus, pH 7, 23 °C, GdnHCl, Fluorescence, MOPS 5 mM, KCl 100 mM, reversible: yes", "value": 7.2, "unit": "kcal/mol"},
      {"measurement": "unfolding free energy", "setting": "Mus musculus, pH 7, 23 °C, Urea, Fluorescence, MOPS 5 mM, KCl 100 mM, reversible: yes", "value": 7, "unit": "kcal/mol"}
    ]},
    {"protein": "B6", "values": [
      {"measurement": "Tm", "setting": "[7]", "value": 94.5, "unit": "°C"},
      {"measurement": "heat capacity change of unfolding", "setting": "[7]", "value": 1.5, "unit": "kcal/mol/K"},
      {"measurement": "unfolding enthalpy (calorimetric)", "setting": "[7]", "value": 122, "unit": "kcal/mol"}
    ]},
    {"protein": "B7", "values": [
      {"measurement": "denaturant m value", "setting": "[8]", "value": 0.7, "unit": "kcal/mol/M"},
      {"measurement": "denaturant midpoint (higher = more stable)", "setting": "[8]", "value": 2.7, "unit": "M"},
      {"measurement": "unfolding free energy", "setting": "[8]", "value": 1.8, "unit": "kcal/mol"},
      {"measurement": "denaturant m value", "setting": "[9]", "value": 1.9, "unit": "kcal/mol/M"},
      {"measurement": "denaturant midpoint (higher = more stable)", "setting": "[9]", "value": 3.6, "unit": "M"},
      {"measurement": "unfolding free energy", "setting": "[9]", "value": 6.9, "unit": "kcal/mol"},
      {"measurement": "unfolding free energy", "setting": "Mus musculus, pH 4, 25 °C, Urea, CD, Sodium acetate 10 mM", "value": 6.8, "unit": "kcal/mol"},
      {"measurement": "unfolding free energy", "setting": "Mus musculus, pH 4, 25 °C, Urea, Fluorescence, sodium acetate 0.5 M", "value": 6, "unit": "kcal/mol"},
      {"measurement": "denaturant m value", "setting": "[10]", "value": 0.7, "unit": "kcal/mol/M"},
      {"measurement": "denaturant midpoint (higher = more stable)", "setting": "[10]", "value": 4.8, "unit": "M"},
      {"measurement": "unfolding free energy", "setting": "[10]", "value": 3.4, "unit": "kcal/mol"}
    ]},
    {"protein": "B8", "values": [
      {"measurement": "Tm", "setting": "[11]", "value": 71, "unit": "°C"},
      {"measurement": "unfolding enthalpy (calorimetric)", "setting": "[11]", "value": 288, "unit": "kcal/mol"},
      {"measurement": "Tm", "setting": "[12]", "value": 58.4, "unit": "°C"},
      {"measurement": "unfolding enthalpy (calorimetric)", "setting": "[12]", "value": 121, "unit": "kcal/mol"},
      {"measurement": "Tm", "setting": "[13]", "value": 58, "unit": "°C"},
      {"measurement": "unfolding enthalpy (calorimetric)", "setting": "[13]", "value": 124, "unit": "kcal/mol"}
    ]}
  ]
}
